Source: article PMC11834968 (RSC Chemical Biology, 2025)

Experiments:
[1] = target: Human recombinant fibroblast activation protein alpha (human, UniProt Q12884, glycosylated (sites not given)); test: cross-linking + other: mass photometry
[2] = target: Biotinylated dipeptidyl peptidase IV (DPP4) (Homo sapiens, UniProt P27487, biotin (site not given)); test: BLI
Chain of Biotinylated dipeptidyl peptidase IV (DPP4) (P27487 39-766): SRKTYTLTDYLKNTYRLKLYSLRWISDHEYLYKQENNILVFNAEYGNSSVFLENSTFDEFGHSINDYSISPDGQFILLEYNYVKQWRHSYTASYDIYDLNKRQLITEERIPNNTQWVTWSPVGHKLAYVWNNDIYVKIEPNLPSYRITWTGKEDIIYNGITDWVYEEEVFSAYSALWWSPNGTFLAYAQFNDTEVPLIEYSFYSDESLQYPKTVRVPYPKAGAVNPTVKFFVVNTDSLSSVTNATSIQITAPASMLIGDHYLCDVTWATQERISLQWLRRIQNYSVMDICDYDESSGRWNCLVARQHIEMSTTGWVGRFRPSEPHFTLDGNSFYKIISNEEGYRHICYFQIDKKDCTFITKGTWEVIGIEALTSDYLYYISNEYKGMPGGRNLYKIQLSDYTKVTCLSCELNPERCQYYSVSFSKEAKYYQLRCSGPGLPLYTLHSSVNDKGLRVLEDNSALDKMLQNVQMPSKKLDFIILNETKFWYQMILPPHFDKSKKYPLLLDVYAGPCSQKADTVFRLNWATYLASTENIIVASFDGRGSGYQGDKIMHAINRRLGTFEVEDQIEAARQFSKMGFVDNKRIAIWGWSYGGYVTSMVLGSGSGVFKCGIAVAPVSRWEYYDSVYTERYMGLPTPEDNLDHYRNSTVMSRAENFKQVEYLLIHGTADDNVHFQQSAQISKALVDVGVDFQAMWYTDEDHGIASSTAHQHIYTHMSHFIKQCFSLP

Chain of Human recombinant fibroblast activation protein alpha (Q12884 27-760): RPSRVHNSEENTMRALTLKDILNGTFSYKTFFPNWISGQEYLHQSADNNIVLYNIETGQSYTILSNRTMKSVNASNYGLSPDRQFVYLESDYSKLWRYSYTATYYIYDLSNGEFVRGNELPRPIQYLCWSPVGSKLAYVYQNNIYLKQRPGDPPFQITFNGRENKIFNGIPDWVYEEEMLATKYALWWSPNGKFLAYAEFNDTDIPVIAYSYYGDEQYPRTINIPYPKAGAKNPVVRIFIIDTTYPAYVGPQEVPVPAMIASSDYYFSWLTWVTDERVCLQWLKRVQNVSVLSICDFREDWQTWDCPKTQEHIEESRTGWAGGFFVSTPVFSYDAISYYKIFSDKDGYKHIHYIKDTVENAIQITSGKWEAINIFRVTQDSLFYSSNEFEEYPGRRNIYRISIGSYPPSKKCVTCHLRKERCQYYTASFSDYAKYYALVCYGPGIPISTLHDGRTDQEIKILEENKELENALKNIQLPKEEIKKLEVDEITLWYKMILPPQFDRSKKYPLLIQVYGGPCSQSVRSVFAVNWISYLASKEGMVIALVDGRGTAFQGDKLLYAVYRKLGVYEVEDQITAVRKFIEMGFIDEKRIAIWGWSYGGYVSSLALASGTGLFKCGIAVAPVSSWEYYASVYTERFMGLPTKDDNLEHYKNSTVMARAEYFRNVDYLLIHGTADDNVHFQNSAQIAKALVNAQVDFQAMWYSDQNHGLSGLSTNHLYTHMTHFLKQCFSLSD

stoichiometry N [1]	binding result [2]	Binder
1	–	SUMO-I3 (single domain antibody I3 fused to an N-terminal 6X His-SUMO-FLAG tag) (VHH) VHH: EVQLVESGGGLVQPGGSLRLSCAASGFTFSSYAMSWVRQAPGKGLEWVSAINSGGGSTSYADSVKGRFTISRDNAKNTLYLQMNSLKPEDTAVYYCAKARTGWSLAVPSFGSWGQGTQVTVSS
–	no binding	MBP-I3 (single domain antibody I3 with N-terminal MBP fusion and C-terminal 6X His-tag) (VHH) VHH: EVQLVESGGGLVQPGGSLRLSCAASGFTFSSYAMSWVRQAPGKGLEWVSAINSGGGSTSYADSVKGRFTISRDNAKNTLYLQMNSLKPEDTAVYYCAKARTGWSLAVPSFGSWGQGTQVTVSS
